According to US20060234941A1 (US Dept. of Health and Human Services, published 2006):

T1: H-2Db MHC class I molecule on RMA-S cells (mouse, UniProt P01887 21-119; P01899 25-362)
T1 construct: MHC class I stabilised on RMA-S (H-2b) cells by added peptide; detected with anti-H-2Db monoclonal antibody clone 28-14-8; also called H-2Db molecules
T1 sequence (MHC heavy, looked up): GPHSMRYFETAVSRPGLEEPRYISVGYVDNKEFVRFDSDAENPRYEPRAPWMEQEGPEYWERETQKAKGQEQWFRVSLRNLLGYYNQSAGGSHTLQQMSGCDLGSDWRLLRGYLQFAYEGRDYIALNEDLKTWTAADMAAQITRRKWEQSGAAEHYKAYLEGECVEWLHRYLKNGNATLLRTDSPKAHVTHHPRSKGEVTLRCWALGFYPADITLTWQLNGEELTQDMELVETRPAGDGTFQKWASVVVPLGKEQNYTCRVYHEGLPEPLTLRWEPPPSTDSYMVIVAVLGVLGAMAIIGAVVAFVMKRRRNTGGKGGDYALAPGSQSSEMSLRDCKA
T1 sequence (b2m, looked up): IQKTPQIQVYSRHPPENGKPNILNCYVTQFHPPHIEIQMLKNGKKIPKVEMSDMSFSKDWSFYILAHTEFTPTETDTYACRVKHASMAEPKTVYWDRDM

B1: Human P53 264-272 peptide (peptide, UniProt P04637 264-272, looked up)
peptide: LLGRNSFEV
notes: range 264-272; also called wild type P53 264-272
B2: KDR3 (murine VEGFR-2/KDR peptide FSNSTNDILI) (peptide)
peptide: FSNSTNDILI
notes: Synthetic peptide (Sigma); also called VEGFR-2/KDR3
B3: KDR2 (murine VEGFR-2/KDR peptide VILTNPISM) (peptide)
peptide: VILTNPISM
notes: Synthetic peptide (Sigma); also called VEGFR-2/KDR2

Legend:
[1] = target: T1, H-2Db MHC class I molecule on RMA-S …; assay: RMA-S MHC class I stabilisation assay, flow cytometry with anti-H-2Db antibody
Description: To test the binding affinity of these peptides to H-2Db, an RMA-S binding experiment was performed, and the FI value in the assay was measured. […] The RMA-Binding assays were performed as previously described (Lyman et al., J. Virol. 76:3125-3134, 2002). Briefly, synthetic peptides were dissolved in dimethyl sulfoxide before dilution. For MHC-binding assays, RMA-S cells were loaded with various peptides for 16 to 18 h at 37° C. Levels of surface class I molecules were assessed by flow cytometric analysis (FACScan; Becton Dickinson) using mouse monoclonal antibodies specific for H-2Db (Southern Biotech, clone No. 28-14-8). FI=Fluorescence after peptides stimulation/ Fluorescence without peptide-1.

[2] = target: T2, HLA-A2 on the surface of T2 cells (human); assay: T2 HLA-A2 stabilisation assay, flow cytometry with W6/32
T2 construct: Stabilised HLA-A2 detected with pan HLA class I monoclonal antibody W6/32; also called MHC molecules
Description: To test the binding affinity of the predicted human peptides for HLA-A2, three exemplary peptides, designated KDR505 (SEQ ID NO:6), KDR775 (SEQ ID NO:7) and KDR1093 (SEQ ID NO:5) were synthesized and evaluated in a T2 binding assay as described by Cerundolo et al., Nature 342:449-452, 1990. In brief, T2 cells were cultured in RPMI1640 with 10% FBS, and grown in 5% CO₂ at 37° C. Cells (1×10⁵) in a volume of 100 μl of RPMI 1640 (serum free) were aliquoted into 96-well, U-bottomed plates and incubated with peptide at a final concentration of 0.1-100 μM plus 5 nM β₂ microglobulin (Cymbus Biotechnology Ltd., Chandlers Ford, Hampshire, United Kingdom) for 18 h at 37° C. in 5% CO₂. The level of stabilized HLA-A2 on the surface of the T2 cells was detected using the pan HLA class I monoclonal antibody W6/32 (European Collection of Animal Cell Cultures (ECACC), Porton Down, Salisbury) that recognizes stabilized HLA-A2 complexes. Samples are fixed in 1% paraformaldehyde in PBS prior to analysis and analyzed on a Becton Dickinson FACSCAN®.

Binder	peptide concentration at FI=0.5 [1]	binding result [2]	binding result [1]
RAHYNIVTF (peptide, UniProt P03129 49-57, looked up, range 49-57; also called HPV E7 49-57) [Human Papilloma Virus (HPV)16E7 49-57 peptide]	~12.5 µM		
AMFFWLLLV [KDR775 (human VEGFR-2/KDR peptide AMFFWLLLV)]		binds	
VLLWEIFSL [KDR1093 (human VEGFR-2/KDR peptide VLLWEIFSL)]		binds	
B1	> 200 µM		no binding (tested: 200 µM)
B2	~3 µM		
B3	~24 µM		
ALIEGKNKT [KDR505 (human VEGFR-2/KDR peptide ALIEGKNKT)]		binds	
